Publication PMC2632911
Read-outs that look alike come from different tables or passages of the source.

Tests used:
Assay in all cases: EMSA
[1] = biological target: T1, H-NS wild type;Tn5 HA transposase (Escherichia coli?;Tn5, UniProt P0ACF8;Q46731 1-137;1-476, |E54K;M56A;L372P)
[2] = biological target: T2, Tn5 HA transposase (Tn5, UniProt Q46731 1-476, E54K;M56A;L372P)
[3] = biological target: H-NS wild type;Tn5 transposase delta369 EK/MA (Escherichia coli?;Tn5, UniProt P0ACF8;Q46731 1-137;1-368, |E54K;M56A)
[4] = biological target: T1, H-NS wild type;Tn5 HA transposase; remark: listed apart in the source
[5] = biological target: H-NS P116S;Tn5 transposase delta369 EK/MA (Escherichia coli?;Tn5, UniProt P0ACF8;Q46731 1-137;1-368, P116S|E54K;M56A)
[6] = biological target: Tn5 transposase delta369 EK/MA (Tn5, UniProt Q46731 1-368, E54K;M56A)
[7] = biological target: T2, Tn5 HA transposase; remark: listed apart in the source
[8] = biological target: T1, H-NS wild type;Tn5 HA transposase; remark: listed apart in the source
[9] = biological target: T3, H-NS wild type (UniProt P0ACF8 1-137)
T3 sequence: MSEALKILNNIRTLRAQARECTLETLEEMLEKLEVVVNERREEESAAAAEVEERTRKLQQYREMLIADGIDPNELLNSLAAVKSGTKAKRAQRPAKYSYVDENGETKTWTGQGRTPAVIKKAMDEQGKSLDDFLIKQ

B1: 53 bp ME (WT) (dsDNA)
DNA 1: CCCTGCAGGTCGACTGTCTCTTATACACATCTTGAGTGAGTGAGCATGCATGT
DNA 2: ACATGCATGCTCACTCACTCAAGATGTGTATAAGAGACAGTCGACCTGCAGGG
[1]
  binding signal: < 2 fold increase
[2]
  binding result: binds
[3]
  binding result: binds
[4]
  binding signal: 11 fold increase
[5]
  binding result: no binding
[6]
  binding result: binds

B2: 20 bp ME (dsDNA)
DNA 1: CTGTCTCTTATACACATCTT
DNA 2: AAGATGTGTATAAGAGACAG
[7]
  binding result: binds
[8]
  binding result: binds
[9]
  binding result: no binding
